How the values were obtained:
[1] = FAC binding constant (Table 5 entry); settings: Table 5: sugar chain having no fucose; at 25° C.
Procedure: (§1) Details of the FAC method are described in Patent Document 2 filed by some of the present applicants, for example.
(§2) Binding constants (at 25° C.) of PhoSL, SRL, NSL and LSL belonging to the fucose α1→6 specific lectin for various sugar chains are shown in Tables 2 to 5.

[2] = Binding to sugar chains, summary of Tables 2 to 5
Procedure: as §1, §2
The AAL and AOL bind to the fucose α1→6 sugar chains (sugar chains No. 015, 201 to 203, and 401 to 418), as well as to the glycolipid-type sugar chain excluding the fucose α1→6 (sugar chains No. 718, 722, 723, 727, 909, 910 and 933). The LCL and PSL bind to the fucose α1→6 sugar chain, as well as to sugar chain excluding the α1→6 fucose (sugar chains No. 003, and 005 to 014).
Furthermore, the binding constant of the fucose α1→6 specific lectin is not decreased even if a sialic acid is added to the fucose α1→6 sugar chain (sugar chains No. 601 and 602). In addition, the fucose α1→6 specific lectin also strongly binds to the triple-strand (sugar chains No. 407 to 413) and the four-strand (sugar chains No. 418) of the fucose uα1→6 sugar chain.

FAC binding constant = settings: at 25° C.
Procedure: as §1, §2

[3] = sugar chain having fucose other than α1→6 fucose

B1: PSL: Pisum sativum lectin, affinity for fucose α1→6 but not specific (protein, UniProt P02867 31-217; P02867 218-275, looked up)
Lectin beta chain: TETTSFLITKFSPDQQNLIFQGDGYTTKEKLTLTKAVKNTVGRALYSSPIHIWDRETGNVANFVTSFTFVINAPNSYNVADGFTFFIAPVDTKPQTGGGYLGVFNSAEYDKTTQTVAVEFDTFYNAAWDPSNRDRHIGIDVNSIKSVNTKSWKLQNGEEANVVIAFNAATNVLTVSLTYPNSLEEEN
Lectin alpha chain: VTSYTLSDVVSLKDVVPEWVRIGFSATTGAEYAAHEVLSWSFHSELSGTSSSKQAADA
Binding constant for sugar chain No. 728 [1]: <1000 M⁻¹ | binding to sugar chain excluding the α1→6 fucose (in words) ([2]; sugar chains No. 003, and 005 to 014 for LCL and PSL): bind | binding to the fucose α1→6 sugar chains (in words) ([2]; sugar chains No. 015, 201 to 203, and 401 to 418): bind | Binding constant for sugar chain No. 728 (FAC binding constant; Table 3: sugar chain having fucose other than α1→6 fucose): <1000 M⁻¹ | Binding constant for sugar chain No. 419 (FAC binding constant; [3]): <1000 M⁻¹ | Binding constant for sugar chain No. 420 (FAC binding constant; [3]): <1000 M⁻¹ | Binding constant for sugar chain No. 718 (FAC binding constant; [3]): <1000 M⁻¹ | Binding constant for sugar chain No. 719 (FAC binding constant; [3]): <1000 M⁻¹ | Binding constant for sugar chain No. 720 (FAC binding constant; [3]): <1000 M⁻¹ | Binding constant for sugar chain No. 721 (FAC binding constant; [3]): <1000 M⁻¹ | Binding constant for sugar chain No. 722 (FAC binding constant; [3]): <1000 M⁻¹ | Binding constant for sugar chain No. 723 (FAC binding constant; [3]): <1000 M⁻¹ | Binding constant for sugar chain No. 726 (FAC binding constant; [3]): <1000 M⁻¹ | Binding constant for sugar chain No. 727 (FAC binding constant; [3]): <1000 M⁻¹ | Binding constant for sugar chain No. 729 (FAC binding constant; [3]): <1000 M⁻¹ | Binding constant for sugar chain No. 730 (FAC binding constant; [3]): <1000 M⁻¹ | Binding constant for sugar chain No. 731 (FAC binding constant; [3]): <1000 M⁻¹ | Binding constant for sugar chain No. 739 (FAC binding constant; [3]): <1000 M⁻¹ | Binding constant for sugar chain No. 909 (FAC binding constant; [3]): <1000 M⁻¹ | Binding constant for sugar chain No. 910 (FAC binding constant; [3]): <1000 M⁻¹ | Binding constant for sugar chain No. 931 (FAC binding constant; [3]): <1000 M⁻¹ | Binding constant for sugar chain No. 932 (FAC binding constant; [3]): <1000 M⁻¹ | Binding constant for sugar chain No. 933 (FAC binding constant; [3]): <1000 M⁻¹ | Binding constant for sugar chain No. 001 (FAC binding constant; sugar chain having no fucose): <1000 M⁻¹ | Binding constant for sugar chain No. 002 (FAC binding constant; sugar chain having no fucose): <1000 M⁻¹ | Binding constant for sugar chain No. 003 (FAC binding constant; sugar chain having no fucose): 7800 M⁻¹ | Binding constant for sugar chain No. 004 (FAC binding constant; sugar chain having no fucose): <1000 M⁻¹ | Binding constant for sugar chain No. 005 (FAC binding constant; sugar chain having no fucose): 7400 M⁻¹ | Binding constant for sugar chain No. 006 (FAC binding constant; sugar chain having no fucose): 7100 M⁻¹ | Binding constant for sugar chain No. 007 (FAC binding constant; sugar chain having no fucose): 7800 M⁻¹ | Binding constant for sugar chain No. 008 (FAC binding constant; sugar chain having no fucose): 10000 M⁻¹ | Binding constant for sugar chain No. 009 (FAC binding constant; sugar chain having no fucose): 7900 M⁻¹ | Binding constant for sugar chain No. 010 (FAC binding constant; sugar chain having no fucose): <1000 M⁻¹ | Binding constant for sugar chain No. 011 (FAC binding constant; sugar chain having no fucose): <1000 M⁻¹ | Binding constant for sugar chain No. 012 (FAC binding constant; sugar chain having no fucose): 17000 M⁻¹ | Binding constant for sugar chain No. 013 (FAC binding constant; sugar chain having no fucose): <1000 M⁻¹ | Binding constant for sugar chain No. 014 (FAC binding constant; sugar chain having no fucose): 8600 M⁻¹ | Binding constant for sugar chain No. 101 (FAC binding constant; sugar chain having no fucose): <1000 M⁻¹ | Binding constant for sugar chain No. 103 (FAC binding constant; sugar chain having no fucose): <1000 M⁻¹ | Binding constant for sugar chain No. 104 (FAC binding constant; sugar chain having no fucose): <1000 M⁻¹ | Binding constant for sugar chain No. 105 (FAC binding constant; sugar chain having no fucose): <1000 M⁻¹ | Binding constant for sugar chain No. 107 (FAC binding constant; sugar chain having no fucose): <1000 M⁻¹ | Binding constant for sugar chain No. 108 (FAC binding constant; sugar chain having no fucose): <1000 M⁻¹ | Binding constant for sugar chain No. 301 (FAC binding constant; sugar chain having no fucose): <1000 M⁻¹ | Binding constant for sugar chain No. 304 (FAC binding constant; sugar chain having no fucose): <1000 M⁻¹ | Binding constant for sugar chain No. 305 (FAC binding constant; sugar chain having no fucose): <1000 M⁻¹ | Binding constant for sugar chain No. 307 (FAC binding constant; sugar chain having no fucose): 2400 M⁻¹ | Binding constant for sugar chain No. 308 (FAC binding constant; sugar chain having no fucose): <1000 M⁻¹ | Binding constant for sugar chain No. 313 (FAC binding constant; sugar chain having no fucose): <1000 M⁻¹ | Binding constant for sugar chain No. 314 (FAC binding constant; sugar chain having no fucose): <1000 M⁻¹ | Binding constant for sugar chain No. 323 (FAC binding constant; sugar chain having no fucose): <1000 M⁻¹ | Binding constant for sugar chain No. 501 (FAC binding constant; sugar chain having no fucose): <1000 M⁻¹ | Binding constant for sugar chain No. 502 (FAC binding constant; sugar chain having no fucose): <1000 M⁻¹ | Binding constant for sugar chain No. 503 (FAC binding constant; sugar chain having no fucose): <1000 M⁻¹ | Binding constant for sugar chain No. 504 (FAC binding constant; sugar chain having no fucose): <1000 M⁻¹ | Binding constant for sugar chain No. 701 (FAC binding constant; sugar chain having no fucose): <1000 M⁻¹ | Binding constant for sugar chain No. 702 (FAC binding constant; sugar chain having no fucose): <1000 M⁻¹ | Binding constant for sugar chain No. 703 (FAC binding constant; sugar chain having no fucose): <1000 M⁻¹ | Binding constant for sugar chain No. 704 (FAC binding constant; sugar chain having no fucose): <1000 M⁻¹ | Binding constant for sugar chain No. 705 (FAC binding constant; sugar chain having no fucose): <1000 M⁻¹ | Binding constant for sugar chain No. 706 (FAC binding constant; sugar chain having no fucose): <1000 M⁻¹ | Binding constant for sugar chain No. 707 (FAC binding constant; sugar chain having no fucose): <1000 M⁻¹ | Binding constant for sugar chain No. 708 (FAC binding constant; sugar chain having no fucose): <1000 M⁻¹ | Binding constant for sugar chain No. 709 (FAC binding constant; sugar chain having no fucose): <1000 M⁻¹ | Binding constant for sugar chain No. 710 (FAC binding constant; sugar chain having no fucose): <1000 M⁻¹ | Binding constant for sugar chain No. 711 (FAC binding constant; sugar chain having no fucose): <1000 M⁻¹ | Binding constant for sugar chain No. 712 (FAC binding constant; sugar chain having no fucose): <1000 M⁻¹ | Binding constant for sugar chain No. 713 (FAC binding constant; sugar chain having no fucose): <1000 M⁻¹ | Binding constant for sugar chain No. 715 (FAC binding constant; sugar chain having no fucose): <1000 M⁻¹ | Binding constant for sugar chain No. 716 (FAC binding constant; sugar chain having no fucose): <1000 M⁻¹ | Binding constant for sugar chain No. 717 (FAC binding constant; sugar chain having no fucose): <1000 M⁻¹ | Binding constant for sugar chain No. 724 (FAC binding constant; sugar chain having no fucose): <1000 M⁻¹ | Binding constant for sugar chain No. 725 (FAC binding constant; sugar chain having no fucose): <1000 M⁻¹ | Binding constant for sugar chain No. 732 (FAC binding constant; sugar chain having no fucose): <1000 M⁻¹ | Binding constant for sugar chain No. 733 (FAC binding constant; sugar chain having no fucose): <1000 M⁻¹ | Binding constant for sugar chain No. 734 (FAC binding constant; sugar chain having no fucose): <1000 M⁻¹ | Binding constant for sugar chain No. 735 (FAC binding constant; sugar chain having no fucose): <1000 M⁻¹ | Binding constant for sugar chain No. 736 (FAC binding constant; sugar chain having no fucose): <1000 M⁻¹ | Binding constant for sugar chain No. 737 (FAC binding constant; sugar chain having no fucose): <1000 M⁻¹ | Binding constant for sugar chain No. 738 (FAC binding constant; sugar chain having no fucose): <1000 M⁻¹ | Binding constant for sugar chain No. 901 (FAC binding constant; sugar chain having no fucose): <1000 M⁻¹ | Binding constant for sugar chain No. 902 (FAC binding constant; sugar chain having no fucose): <1000 M⁻¹ | Binding constant for sugar chain No. 903 (FAC binding constant; sugar chain having no fucose): <1000 M⁻¹ | Binding constant for sugar chain No. 905 (FAC binding constant; sugar chain having no fucose): <1000 M⁻¹ | Binding constant for sugar chain No. 906 (FAC binding constant; sugar chain having no fucose): <1000 M⁻¹ | Binding constant for sugar chain No. 907 (FAC binding constant; sugar chain having no fucose): <1000 M⁻¹ | Binding constant for sugar chain No. 015 (FAC binding constant; sugar chain having α1→6 fucose): 120000 M⁻¹ | Binding constant for sugar chain No. 201 (FAC binding constant; sugar chain having α1→6 fucose): 100000 M⁻¹ | Binding constant for sugar chain No. 202 (FAC binding constant; sugar chain having α1→6 fucose): 44000 M⁻¹ | Binding constant for sugar chain No. 203 (FAC binding constant; sugar chain having α1→6 fucose): 25000 M⁻¹ | Binding constant for sugar chain No. 401 (FAC binding constant; sugar chain having α1→6 fucose): 92000 M⁻¹ | Binding constant for sugar chain No. 402 (FAC binding constant; sugar chain having α1→6 fucose): 48000 M⁻¹ | Binding constant for sugar chain No. 403 (FAC binding constant; sugar chain having α1→6 fucose): 38000 M⁻¹ | Binding constant for sugar chain No. 404 (FAC binding constant; sugar chain having α1→6 fucose): 45000 M⁻¹ | Binding constant for sugar chain No. 405 (FAC binding constant; sugar chain having α1→6 fucose): 36000 M⁻¹ | Binding constant for sugar chain No. 406 (FAC binding constant; sugar chain having α1→6 fucose): 13000 M⁻¹ | Binding constant for sugar chain No. 407 (FAC binding constant; sugar chain having α1→6 fucose): <1000 M⁻¹ | Binding constant for sugar chain No. 410 (FAC binding constant; sugar chain having α1→6 fucose): <1000 M⁻¹ | Binding constant for sugar chain No. 413 (FAC binding constant; sugar chain having α1→6 fucose): <1000 M⁻¹ | Binding constant for sugar chain No. 418 (FAC binding constant; sugar chain having α1→6 fucose): <1000 M⁻¹ | Binding constant for sugar chain No. 601 (FAC binding constant; sugar chain having α1→6 fucose): 31000 M⁻¹ | Binding constant for sugar chain No. 602 (FAC binding constant; sugar chain having α1→6 fucose): 29000 M⁻¹

Reference: patent US20200264182A1, “METHOD FOR DETECTING PROSTATE CANCER” (J-OIL MILLS, INC., priority 2017, published 2020)
